Results: patent US20220204627A1 (WILLIAM ROBERT ARATHOON LIVING TRUST DATED AUGUST 29 2016, published 2022)
Positions count from the first letter of the chain named. In names and notes the source's numbering stands. Blank lines part the entries; values can stand above or below the binder they belong to.

Columns and labels:
[1] = biological target: T1, human P Glycoprotein (Pgp) / Multidrug resistance protein 1 (MDR1), gene ABCB1, on cells (human, UniProt P08183 1-1280); experiment: cell-based or functional assay
[2] = biological target: T1, human P Glycoprotein (Pgp) / Multidrug …; experiment: flow cytometry on 293T cells stably expressing human ABCB1 (293T_ABCB1_OX; the cells also carry CD47); 293T_ABCB1_OX cells: Pgp overexpressed, CD47 also present
[3] = biological target: T1, human P Glycoprotein (Pgp) / Multidrug …; experiment: FACS on 293T-B1OX cells (overexpressing MDR1)
[4] = biological target: T2, human CD47-Fc fusion protein (R&D systems) (human, UniProt Q08722 19-141); experiment: ELISA, binding to CD47; 15D3 HC with its own 15D3 LC (un-swapped control); ELISA
T2 construct: Bought (R&D systems); also called Fc-tagged CD47; not shown: Fc part of the bought fusion protein

[5] = biological target: T1, human P Glycoprotein (Pgp) / Multidrug …; experiment: flow cytometry on 293T cells stably expressing human ABCB1 (293T_ABCB1_OX)
[6] = biological target: T2, human CD47-Fc fusion protein (R&D …); experiment: ELISA, binding to CD47; design: Bmax: unit not given here
[7] = biological target: T2, human CD47-Fc fusion protein (R&D …); experiment: ELISA, binding to CD47
[8] = biological target: T3, human CD47 on cells (human, UniProt Q08722 19-323); experiment: flow cytometry on human red blood cells (h408 RBC), Alexa Fluor 647 channel
T3 construct: also called KT14 (target name); leukocyte surface antigen CD47

[9] = biological target: T4, cynomolgus CD47 on erythrocytes (cynomolgus, UniProt A0A5F8AK49 19-323 (rhesus entry)); experiment: flow cytometry on cynomolgus red blood cells (cy807 RBC), Alexa Fluor 647 channel
T4 construct: whole, on cells; also called cynomolgus RBCs

[10] = biological target: T2, human CD47-Fc fusion protein (R&D …); experiment: ELISA, Fc-tagged CD47 coated on the plate
[11] = biological target: T1, human P Glycoprotein (Pgp) / Multidrug …; experiment: flow cytometry on 293T cells stably expressing human ABCB1 (293T_ABCB1_OX; the cells also carry CD47)
[12] = biological target: T2, human CD47-Fc fusion protein (R&D …); experiment: ELISA, plate coated with human CD47-Fc; design: Bmax: unit not given here
[13] = biological target: T2, human CD47-Fc fusion protein (R&D …); experiment: ELISA, plate coated with human CD47-Fc
[14] = biological target: T1, human P Glycoprotein (Pgp) / Multidrug …; experiment: FACS on 293T cells overexpressing MDR1 (column MDR1 FACS)
[15] = biological target: T5, EGFR on 293T cells overexpressing EGFR (UniProt P00533 25-1210, limits assumed); experiment: FACS on 293T-EGFR OX cells
T5 construct: whole, on cells

B2: anti-MDR1 antibody 15D3 (recombinant, human IgG1/Kappa) (antibody, V domains shown)
VH: EVKVVESGGVLVRPGGSLKLSCAASGFTFSRYTMSWVRQTPEKRLEWVATISSGGGNTYYPDSVKGRFTVSRDNAMSSLYLQMSSLRSEDTALYYCARYGAGDAWFAYWGQGTLVTVSA
VL: DVLMTQTPLSLPVSLGDQASISCRSSQSIVHSTGNTYLEWYLQKPGQSPKLLIYKVSNRFSGVPDRFSGSGSGTDFTLKISRLEAEDLGVYYCFQGSHFPRTFGGGTRLEIK
notes: also called 15D3/15D3
EC50 [3]: 25.1 nM
Kd [4]: 10.9 nM
EC50 [5]: 14.6 nM
Bmax [6]: 3.2
Vincristine IC50 (nM) on N6/ADR cells with antibody at 50 ug/mL [1]: 0.466 nM

B3: 15D3/MRK16 (anti-MDR1 antibody with two 15D3 heavy chains and two MRK16 light chains) (antibody, human IgG1, V domains shown)
VH: B2 VH
VL: B2 VL with L9V, P12S, V56I, L83V, G96A, R108K
notes: Human IgG1 / kappa constant regions; also called 15D3/MRK16 monoclonal; a15D3:MRK16 antibody
Bmax [6]: 3.94
Kd [6]: 229 nM
fold decrease in affinity against the un-swapped 15D3 control [7]: ~20 fold

B4: anti-MDR1 antibody MRK16 (recombinant, human IgG1/Kappa) (antibody, V domains shown)
VH: EVILVESGGGLVKPGGSLKLSCAASGFTFSSYTMSWVRQTPEKRLEWVATISSGGGNTYYPDSVKGRFTISRDNAKNNLYLQMSSLRSEDTALYYCARYYRYEAWFASWGQGTLVTVSA
VL: B2 VL with L9V, P12S, V56I, L83V, G96A, R108K
EC50 [3]: 58.8 nM
R4 (percent of red blood cells in the positive gate R4) [8]: 0.867%
binding result [8]: no binding
R4 (percent of red blood cells in the positive gate R4) [9]: 0.801%
binding result [9]: no binding
Vincristine IC50 (nM) on N6/ADR cells with antibody at 50 ug/mL [1]: 0.734 nM

B6: Ab5 (15D3 HC-Hz1 DD hIgG1 / KT14 IgG1 KK / MRK16 VL-Hz1) (bispecific antibody, V domains shown)
VH 1: EVQLVESGGVVVQPGGSLRLSCAASGFTFSRYTMSWVRQAPGKGLEWVATISSGGGQTYYPDSVKGRFTVSRDNSKNSLYLQMNSLRTEDTALYYCARYGAGDAWFAYWGQGTLVTVSS
VH 2: QVQLVQSGAEVKKPGASVKVSCKASGYTFTNYNMHWVRQAPGQRLEWMGTIYPGNDDTSYNQKFKDRVTITADTSASTAYMELSSLRSEDTAVYYCARGGYRAMDYWGQGTLVTVSS
VL: DIVMTQTPLSSPVTLGQPASISCRSSQSIVHSTGQTYLEWYQQRPGQPPRLLIYKISNRFSGVPDRFSGSGAGTDFTLKISRVEAEDVGVYYCFQASHFPRTFGQGTKLEIK
notes: Human IgG1 heavy chains with DD on the 15D3 arm and KK on the KT14 (5F9) arm; kappa light chain
EC50 [11]: 137 nM
Vincristine IC50 (nM) on N6/ADR cells with antibody at 50 ug/mL [1]: 0.0589 nM

B8: 5F9/15D3 (5F9 heavy chain with 15D3 light chain) (antibody, human IgG1, V domains shown)
VH: B6 VH 2
VL: B2 VL
notes: Light chain shuffle construct; human IgG1 / kappa constant regions
Bmax [12]: 2.96
Kd [12]: 0.257 nM

B9: 5F9/MRK16 (anti-CD47 antibody with two 5F9 heavy chains and two MRK16 light chains) (antibody, human IgG1, V domains shown)
VH: B6 VH 2
VL: B2 VL with L9V, P12S, V56I, L83V, G96A, R108K
notes: Human IgG1 / kappa constant regions; also called KT14/MRK16 monoclonal; KT14_MRK16
R4 (percent of red blood cells in the positive gate R4) [8]: 0.708%
R4 (percent of red blood cells in the positive gate R4) [9]: 0.717%
binding result [9]: no binding
Bmax [12]: 2.94
Kd [12]: 0.17 nM
fold decrease in affinity against the un-swapped 5F9 control [13]: 100 fold

B10: UIC2 DD HC::cetuximab KK HC::MRK16 LC (bispecific antibody, V domains shown)
VH 1: AVQLQQSGPELVKTGASVKISCKASGYSFSNYYIHWVKQSHGKSLEWIGFISCYNGATFYNQKFKGKATFTVDTSSSTAYMKFNSLTFEDSAVYYCARLPIQFGNFYPMDYWGQGTSVTVSS
VH 2: not shown
VL: B2 VL with L9V, P12S, V56I, L83V, G96A, R108K
notes: DD / KK charge pair substitutions in the IgG1 heavy chains; common light chain
binding result [14]: no binding

B14: 5F9/M89 (5F9 heavy chain with M89 light chain) (antibody, human IgG1, V domains shown)
VH: B6 VH 2
VL: EIVLTQSPATLSLSPGERATLSCRASQSVGGSYLAWYQQKPGQAPRLLIYGASRRATGIPARFSGSGSGTDFTLTISSLQPEDFASYFCQQTNTFPLTFGGGTKVEIK
notes: as for B8
Bmax [12]: 4.22
Kd [12]: 1510 nM

The remaining lines, values ahead:

Vincristine IC50 (nM) on N6/ADR cells with antibody at 50 ug/mL [1]: 0.002 nM
EC50 [2]: 75.5 nM
B1: Ab1 (15D3 IgG1 DD / KT14 IgG1 KK / MRK16 VL-Hz1) (bispecific antibody, V domains shown)
VH 1: B2 VH
VH 2: B6 VH 2
VL: B6 VL
notes: Human IgG1 heavy chains with DD (K392D, K409D) on the 15D3 arm and KK (E356K, D399K) on the KT14 (5F9) arm; kappa light chain

Kd [10]: 145 nM
R4 (percent of red blood cells in the positive gate R4) [8]: 0.609%
R4 (percent of red blood cells in the positive gate R4) [9]: 0.483%
binding result [9]: no binding
Vincristine IC50 (nM) on N6/ADR cells with antibody at 50 ug/mL [1]: 0.0461 nM
EC50 [2]: 40.3 nM
B5: KBisP1.1 bispecific antibody (15D3 IgG1 DD/5F9 IgG1 KK/MRK16) (bispecific antibody, V domains shown)
VH 1: B2 VH
VH 2: B6 VH 2
VL: B2 VL with L9V, P12S, V56I, L83V, G96A, R108K
notes: 15D3 VH on human IgG1 with K392D and K409D (DD), 5F9 VH on human IgG1 with E356K and D399K (KK), EU numbering; also called KNJYBisP1.1; KBis1.1

Kd [10]: 1620 nM
B7: 15D3 IgG1 KK/5F9 IgG1 DD/UIC2 (bispecific antibody)
chain 1: not shown
chain 2: not shown
chain 3: DVVMTQTPRSLPVSLGDQASISCRSSQSLLHSNGNTYLHWYLQKPGQSPKLLIYKVSNRFSGVPDRFSGSGSGTDFTLKISRVEAEDLGVYFCSQSTHIPPWTFGGGTKLDIKRTVAAPSVFIFPPSDEQLKSGTASVVCLLNNFYPREAKVQWKVDNALQSGNSQESVTEQDSKDSTYSLSSTLTLSKADYEKHKVYACEVTHQGLSSPVTKSFNRGEC

Bmax [12]: 3.08
Kd [12]: 6.3 nM
B11: 5F9/UIC2 (5F9 heavy chain with UIC2 light chain) (antibody, human IgG1, V domains shown)
VH: B6 VH 2
VL: DVVMTQTPRSLPVSLGDQASISCRSSQSLLHSNGNTYLHWYLQKPGQSPKLLIYKVSNRFSGVPDRFSGSGSGTDFTLKISRVEAEDLGVYFCSQSTHIPPWTFGGGTKLDIK
notes: as for B8

Bmax [6]: 3.45
Kd [6]: 169 nM
B12: 15D3/UIC2 (15D3 heavy chain with UIC2 light chain) (antibody, human IgG1, V domains shown)
VH: B2 VH
VL: B11 VL
notes: as for B8

Bmax [6]: 3.1
Kd [6]: 252 nM
B13: 15D3/5F9 (15D3 heavy chain with 5F9 light chain) (antibody, human IgG1, V domains shown)
VH: B2 VH
VL: DIVMTQSPLSLPVTPGEPASISCRSSQSIVYSNGNTYLGWYLQKPGQSPQLLIYKVSNRFSGVPDRFSGSGSGTDFTLKISRVEADVGVYYCFQGSHVPYTFGQGTKLEIK
notes: as for B8

EC50 [3]: 33.1 nM
EC50 [15]: 110 nM
B15: 15D3 DD HC::necitumumab KK HC::MRK16 LC (bispecific antibody, IgG1, V domains shown)
VH 1: B2 VH
VH 2: QVQLQESGPGLVKPSQTLSLICTVSGGSISSGDYYWSWIRQPPGKGLEWIGYIYYSGSTDYNPSLKSRVTMSVDTSKNQFSLKVNSVTAADTAVYYCARVSIFGVGTFDYWGQGTLVTVSS
VL: B2 VL with L9V, P12S, V56I, L83V, G96A, R108K
notes: DD = K392D and K409D, KK = E356K and D399K (EU) in the IgG1 heavy chains; common light chain; also called 15D3DD: necitumumab KK:MRK16; KT3-2KK 15D3DD 1MRK16
